From the nanobody polyreactivity screen of Harvey et al. (2022)

Experiment: yeast display, Sf9 membrane polyspecificity reagent, FACS + sequencing; frameworks hold sequencing errors
Summary of the method: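 A nanobody's polyreactivity label depends on the gate it was sorted from. Yeast display cells were stained with 10% biotinylated, detergent-solubilized Sf9 membrane reagent for 1 hour at 4 °C, enriched on streptavidin microbeads and sorted by FACS. The low and high (top ~1%) gates were set on anti-HA fluorescence for expression and streptavidin fluorescence for reagent binding.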

## QVQLQESGGGLVQAGGSLRLSCAASGSIFDGFNMGWYRQAPGKEREFVAAISYGASTYYADSVKGRFTVSRDNAKNSVYLQMNSLKPEATAVYYCAVYDELYHVLVYWGRGTQVTVSS
  polyreactivity (PSR sort gate): low polyreactivity

## QVQLVESGGGLVQAGGSLRLSCAASGRIFYVNAMGWYRQAPGKERELVATINYTDGSTYYADSVKGRFTISRDKAKNTVYLQMNSMKPEDTAVYYCAADAVWYDFVAYWTTYYYWGPGTQVTVSS
  polyreactivity (PSR sort gate): low polyreactivity

## QVQLVETGGGLVQAGGSLRLSCAASGSTFSRNAMGWYRQAPGKEREFVAAISWSGSSTYYADSVKGRFTISRDNEKNTVYLQMNSLKPEDTAVYYCAARETWYPYYWMGYWGQGAQVTVSS
  polyreactivity (PSR sort gate): high polyreactivity

## QVQLVETGGGLVQAGGSLRLSCAASGRISYDYAMGWYRPPPGKERELVAAITTGGNTYYADSVKGRFTISRDNAKNTVYLQLNRLKPEDTAVYYCSVRGPYVRYNRYNYVYWGQGTQVTVSS
  polyreactivity (PSR sort gate): low polyreactivity

## QVQLVESGGGLVQAGGSLRLSCAASGSTFNRNGMGWYRQAPGKERELVAAISRSTTSTYYADSVKGRFTISRDNAKNTVYLQMNSLKPEDTAVYYCATPHRYRVDYWGQGTQVTVSS
  polyreactivity (PSR sort gate): high polyreactivity

## QVQLVDSVGGLVQAGGTHRLSCAASGSIFEIYAMGWYRQAPGKERELVASITSSGGSTYYADSVKGRFTISRDYAKNTVYLQMNSLKPEDTAVYYCATDKRYGRTVRMDYWGQGTQVTVSS
  polyreactivity (PSR sort gate): low polyreactivity

## QVQLVESGGGLVQAGGSLRLSCAASGFTFRGNAMGWYRQAPGKERELVAAITSSDDSTYYADSVKGRFTISRDNAKNTVYLQMNSLKPEDTAVYYCAVYFFSFWGQGTQVTVSS
  polyreactivity (PSR sort gate): low polyreactivity

## QVQLVESGGGLVQAGGSLRLSCAASGSTFTLNAMGWYRQAPGKERELVADISWSSGRTYYADSVKGRFTISRDTEKNTVYLQMNSLKPEDTAVYYCATDDLSIVKFYAYYPEFDYWGQGTQVTVSS
  polyreactivity (PSR sort gate): low polyreactivity

## QVQLVESGGGLVQAGGSRRLSCAASGFFFDVNAMGWYRQAPGTEREWVATISKRGGTTYYADSVKGRFTISRDNAKNTVYLQMNSLKQEDTAVYYCAARHQSLRSYRYDYWGQGTQVTVSS
  polyreactivity (PSR sort gate): low polyreactivity

## QVQHVESGGGLVQAGGSLRLSCAASGDIFRPNAMGWYRQAPGKERELVAAITRSGGTTYYADSVKGRFTISRDYAKNTVYLQMNSLNPEDTAVYYCAARGLQYYRYDYWGQGTQVTVSS
  polyreactivity (PSR sort gate): low polyreactivity

## QVQLQESGGGLVQVGGSLRLSCAASGTIFNYGFLGRNRQAPGKERELVASINLGGITNYADSVKGRFTISRDNAKNTVYLQMISLKPEDTAVYYCAAYVVTGQNYGYWGQGTQVTVSS
  polyreactivity (PSR sort gate): low polyreactivity

## QVQLVESGGGLVQAGGSLRLSCAASGSTFLPNAMGWYRQAPGKERELVARISYSGGNTYYADSVKGRFTISRDNAKNTVYLQMNSLKPEDTAVYYCAAVGWYHDYYWGQGTQVTVSS
  polyreactivity (PSR sort gate): high polyreactivity

## QVQLVESGGGLVQAGGSLRLSCAASGRIFQDYARGWYRQAPGKERELVPSIRWSSTSTYYADSVKGRFTISRDNAKNTVYLQMNSLKPEDTAVYYCNARYPYYTRTRDGRMYYWGQGTQVTVSS
  polyreactivity (PSR sort gate): low polyreactivity

## QVQLVESGGGLVQAGGSLRLSCAASGSTFNDYAMGWYRQAPGKERELVAGITWRGTSTYYADSVKGRFTISRDNAKNTVYLQMNSLKPEDTAVYYCAADVYYLLWLWMDYWGQGTQVTVSS
  polyreactivity (PSR sort gate): low polyreactivity

## QVQLVESGGGLVQAGGSLRLSCAASGSTFGANAMGGYRQAPGKERELVATISSGGRTYYADSVKGRFTISRDNAKNTVYLQMNSLKPEDTAVYYCNAGADYTYVYISVYVLYDYWGQGTQVTVSS
  polyreactivity (PSR sort gate): low polyreactivity

## QVQLVESGGGLVQAGGSLRLSCAASGSTFLVYAMGWYRQAPGKERELVAVITRGVRTFYADSVKGRFTFSRDNAKNTVYLQMNSLKPEDTAVYYCAKERYNANYDTSLYDYWGQGTQVTVSS
  polyreactivity (PSR sort gate): low polyreactivity

## QVQLVESGGGLVQAGGSLRLSCAASGSIFQHNDMGWYRQAPGKERELVAAMSRSGGSTYYADSVKGRFTISRDNAKNTVYLQRNSLKPEDTAVYYCNAGRRTGRYAYWGQGTQVTVSS
  polyreactivity (PSR sort gate): high polyreactivity

## QVQLVESGGGLVQAGGSLRLSCAASGSTIRNYAMGWYRQAPGKERELVAAISSGGRTYYADSVKGRFTISRDNAKNTVYLQMNSLKPEDTAVYYCYTPYTVRGRYSYDYWGQGTQVTVSS
  polyreactivity (PSR sort gate): high polyreactivity

## QVQLVESGGGLVQAGGSLRLSCAASGSTFRSYAMGWYRQAPGKERELVAAITWRGGSTDYADSVKGRFTISRDNAKNTVYLQMNSLKPEDTAVYYCAAAIWGDYGAYDYWGQGTQVTVSS
  polyreactivity (PSR sort gate): low polyreactivity

## QVQLVESGGGLVQAGGSLRLSCAASGFTFRYYVMGWYRQAPGKERELVAAITSGGRTHYADSVKGRFTISRDNAKNTDYLQMNSLKPEDTAVYYCAVRTQFAGLHYYYGYWGQGTQVTVSS
  polyreactivity (PSR sort gate): high polyreactivity

## QVQLVESGGGLDQAGGSLRLSCAASASIFWGYDMGWYRQAPGKEREFVARISYSGGSTSYAESVKGRFTISRDNAKNTVYLQMNSLKPEDTAVYYCAADEGVFWWTYPYDSWGQGTQVTVSS
  polyreactivity (PSR sort gate): low polyreactivity

## QVQLVESGGGLVQAGGSLRLTCAASGSILYYAMGWYRQAPGKERELVAAITRSGTTTYYAASVKGRFTISRDNAKKTVYLQMNSLKPEDTAVYFWAARTSYDYDYWGQGTQVTVSS
  polyreactivity (PSR sort gate): high polyreactivity

## QVQLVESGGGLVQAGGSLRLSCAASGSTYERYAMGWYRQAPGKERELVAAISAIGDSTYYADSVKGRITISRDNANNTVYLQMNSLKPEDTAVYYCAARYTRYHIGRGYYYWGQGTQVTVSS
  polyreactivity (PSR sort gate): high polyreactivity

## QVQLVESGGGLVQAGGSLRLSCAASGRIFLTNTMGWYRQAPGKERELVAGISRGGRTYYADSVKGRFTISRDNAKNTVYLQMNSLKPEDTAVYYCNARLRHSQYAYYYWGQGTQVTVSS
  polyreactivity (PSR sort gate): high polyreactivity

## QVQLVESGGVLVQAGGSLRLSCAASGSTFKPYAMGWYRQAPGKEREFVAANSRGTRTYADSVKGRFTISRDNAKNTVSLPMNSLKPEDTAVYYCAAEWSWIFGYHYEYDYGGQGTQVTVSS
  polyreactivity (PSR sort gate): low polyreactivity

## QVQLVESGGGLVQAGGSLRLSCAASGSILGLYAMGWYRQAPGKERELVAAITYRGGRTDYADSVKGRFTISRDNAKNTVYLQMNSLKPEDTAVYYCAAGYLPRPRYSTSYLYYYWGQGTQVTVSS
  polyreactivity (PSR sort gate): high polyreactivity

## QVQLVESGGGLVQAGGSLRLSCAASGFIFAFYARGWYRQAPGKERELVASISRRSGSTYYADSVKGRFTISRDNAKNNVYLQMNSLKPEDTAVYYCSADRPPWETYGYDYWGQGTQVTVSS
  polyreactivity (PSR sort gate): low polyreactivity

## QFQLVESGGGLVQAGGSLRLSCAASGRTFSRTAMGWYRQAPGKERELVAAITKGGGSTYYADSVKGRFTISRDNAKNTVYLQMNSLKPEDTAVYYCAAYKPSTRRYDYWGQGTQVTVSS
  polyreactivity (PSR sort gate): high polyreactivity

## QVQLVESGGGLVQAGGSLRLSCAASGLTFRRYDMGWNRQAPGKEREFVAAITWSTGSTYYADSVKGRFTISRDNAKNTDYLPMNSLKPEDTAVYYCAARSGYFYRYYKYDYWGQGTQVTVSS
  polyreactivity (PSR sort gate): high polyreactivity

## QVQLVESGAGLVKAGGSLRLSSAASGSTFGEYDMGWYRQAPGKERELVASITFSAGSTDYADSVKGRFTISRDNAKNTVYLQMNSLNPEDTAVYYCAADGWWPWEYDYWGQGTQGTVSS
  polyreactivity (PSR sort gate): low polyreactivity

## QVQLVESGGGLVQAGGSLRLSCAASGITFEGYAMGWFRPAPGKERELVAAIRSSGTSTYYADSVKGRFTISRDNAKTTVYLQMNSQKPVDTAVYYCNRARSSSRYDYWGQGTQVTVSS
  polyreactivity (PSR sort gate): low polyreactivity

## QVQLVESGGGLVQAGGILRLSCAASGYNFKYYAMGWYRQAPGKERELVAAISRSGGSTYYADSVKGRFTISRDNAKNTVYLQMNSLTPEDTAVYYCAAYTHYAYGHDYWGQGTQVTVSS
  polyreactivity (PSR sort gate): high polyreactivity
